Assay results from patent US20170189508A1.

Target: HLA-A*02 (human)
Test: UV peptide exchange + b2m ELISA, exchange yield grade

SLTEVSLPL [… (SEQ ID NO: 45)]
peptide exchange yield: 50 to 75%
